For this series, the target named is T1, RIG-I (ΔCARDs 1-238) (human, UniProt O95786 239-925, del1-238).
T1 sequence: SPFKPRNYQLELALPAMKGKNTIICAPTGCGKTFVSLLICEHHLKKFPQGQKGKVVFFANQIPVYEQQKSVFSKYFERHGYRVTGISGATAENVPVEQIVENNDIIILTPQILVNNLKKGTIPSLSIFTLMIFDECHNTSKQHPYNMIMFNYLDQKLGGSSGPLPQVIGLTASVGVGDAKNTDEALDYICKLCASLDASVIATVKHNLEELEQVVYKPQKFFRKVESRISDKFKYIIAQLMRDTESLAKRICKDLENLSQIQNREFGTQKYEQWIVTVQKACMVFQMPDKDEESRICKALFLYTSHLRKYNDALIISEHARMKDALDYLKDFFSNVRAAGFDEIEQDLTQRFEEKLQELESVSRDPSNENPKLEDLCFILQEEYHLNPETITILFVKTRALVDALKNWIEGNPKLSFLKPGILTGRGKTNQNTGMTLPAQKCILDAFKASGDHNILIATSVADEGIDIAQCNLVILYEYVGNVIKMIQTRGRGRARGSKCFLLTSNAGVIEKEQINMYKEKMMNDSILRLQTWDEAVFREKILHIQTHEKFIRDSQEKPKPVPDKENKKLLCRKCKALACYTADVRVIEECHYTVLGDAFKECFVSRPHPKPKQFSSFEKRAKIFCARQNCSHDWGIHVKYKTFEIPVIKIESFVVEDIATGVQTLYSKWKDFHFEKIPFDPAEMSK
Nature of the series: X-ray crystallography.

For GGCGCGGCUUCGGCCGCGCC (structured_RNA, 5' triphosphate) [5'ppp8L], the binding result was “binds”.

The values are drawn from PMC3515076.
